In the case of “Recombinant human urokinase plasminogen activator (uPA)”, the “proteolytic cleavage, SDS-PAGE” value is listed as “IL12Rβ1-LS-IL12 containing LSGRSDNH (SEQ ID NO:49) substrate was cleaved by uPA” in the data set on IL12Rβ1-LS-IL12 and “These enzymes had no effect on IL12 itself” in the data set on Mouse IL12 (unmodified).
For the substance “Recombinant mouse matrix metalloproteinase-2 (MMP2)”, the “proteolytic cleavage, SDS-PAGE (30 min, 37 C)” value in the data set with IL12Rβ1-VP-IL12 was “MMP2 and MMP9 fully cleaved the IL12Rβ1 portion, yielding IL12 heterodimer (-60 kDa)”. Further, the “proteolytic cleavage, SDS-PAGE” value in the data set with Mouse IL12 (unmodified) is on record as “These enzymes had no effect on IL12 itself”.

For the origin of these results see patent US20220281936.

Chain of Mouse IL12 (unmodified) (chain, as listed by the source, chain 1 of 2): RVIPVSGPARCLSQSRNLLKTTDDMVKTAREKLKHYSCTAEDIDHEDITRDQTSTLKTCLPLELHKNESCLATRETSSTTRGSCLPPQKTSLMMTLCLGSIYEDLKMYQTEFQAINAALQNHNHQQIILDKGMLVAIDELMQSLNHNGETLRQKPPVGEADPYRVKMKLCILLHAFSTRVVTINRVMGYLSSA
Chain of Mouse IL12 (unmodified) (chain, as listed by the source, chain 2 of 2): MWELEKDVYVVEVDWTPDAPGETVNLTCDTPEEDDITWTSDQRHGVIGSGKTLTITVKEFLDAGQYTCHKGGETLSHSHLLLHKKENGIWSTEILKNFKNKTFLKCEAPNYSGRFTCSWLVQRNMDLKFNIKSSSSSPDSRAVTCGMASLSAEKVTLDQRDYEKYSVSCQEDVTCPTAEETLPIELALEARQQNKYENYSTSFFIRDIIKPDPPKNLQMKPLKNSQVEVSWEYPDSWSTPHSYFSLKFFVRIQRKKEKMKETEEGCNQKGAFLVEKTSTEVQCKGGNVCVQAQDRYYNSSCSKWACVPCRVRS
Chain of Recombinant mouse matrix metalloproteinase-2 (MMP2) (chain, as listed by the source): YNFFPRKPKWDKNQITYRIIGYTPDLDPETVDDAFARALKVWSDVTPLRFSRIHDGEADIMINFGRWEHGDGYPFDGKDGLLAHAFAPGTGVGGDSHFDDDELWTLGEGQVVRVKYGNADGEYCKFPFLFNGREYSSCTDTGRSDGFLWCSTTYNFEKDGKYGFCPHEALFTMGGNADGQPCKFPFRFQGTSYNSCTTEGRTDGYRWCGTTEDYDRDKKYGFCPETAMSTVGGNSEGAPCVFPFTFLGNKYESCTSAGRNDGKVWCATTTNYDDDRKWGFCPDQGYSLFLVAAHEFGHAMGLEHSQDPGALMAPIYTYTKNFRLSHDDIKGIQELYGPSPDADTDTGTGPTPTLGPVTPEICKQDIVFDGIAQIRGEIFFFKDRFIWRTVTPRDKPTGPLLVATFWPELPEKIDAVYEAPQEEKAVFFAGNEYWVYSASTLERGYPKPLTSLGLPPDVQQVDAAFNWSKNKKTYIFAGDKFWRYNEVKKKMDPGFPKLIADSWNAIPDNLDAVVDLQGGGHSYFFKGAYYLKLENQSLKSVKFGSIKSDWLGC
Chain of IL12Rβ1-LS-IL12 (chain, as listed by the source, chain 1 of 2): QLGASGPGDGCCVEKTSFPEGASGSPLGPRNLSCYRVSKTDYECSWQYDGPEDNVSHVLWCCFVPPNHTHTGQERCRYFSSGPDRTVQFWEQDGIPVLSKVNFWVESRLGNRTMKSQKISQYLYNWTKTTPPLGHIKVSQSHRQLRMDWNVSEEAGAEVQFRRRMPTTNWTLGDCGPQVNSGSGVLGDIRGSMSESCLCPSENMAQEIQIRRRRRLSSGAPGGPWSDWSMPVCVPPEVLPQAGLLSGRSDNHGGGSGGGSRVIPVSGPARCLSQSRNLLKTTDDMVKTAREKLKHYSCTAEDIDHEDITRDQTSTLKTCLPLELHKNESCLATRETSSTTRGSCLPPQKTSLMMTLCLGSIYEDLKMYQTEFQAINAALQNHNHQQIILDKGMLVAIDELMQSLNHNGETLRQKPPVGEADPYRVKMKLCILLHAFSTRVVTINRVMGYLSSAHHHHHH
Chain of IL12Rβ1-LS-IL12 (chain, as listed by the source, chain 2 of 2): as the sequence (chain, as listed by the source, chain 2 of 2) above
